Substrate in the data set: N[C@@H](COP(=O)(O)O)C(=O)O
Put plainly: purified protein, by the assay type. The conditions noted are these: other: substrates of PSAT1, optimized conditions; pH 8.5.

In article PMC7168936 one finds Km data, which are given here for one protein.

B1: PSAT1 (Homo sapiens) (protein)
chain: MDAPRQVVNFGPGPAKLPHSVLLEIQKELLDYKGVGISVLEMSHRSSDFAKIINNTENLVRELLAVPDNYKVIFLQGGGCGQFSAVPLNLIGLKAGRCADYVVTGAWSAKAAEEAKKFGTINIVHPKLGSYTKIPDPSTWNLNPDASYVYYCANETVHGVEFDFIPDVKGAVLVCDMSSNFLSKPVDVSKFGVIFAGAQKNVGSAGVTVVIVRDDLLGFALRECPSVLEYKVQAGNSSLYNTPPCFSIYVMGLVLEWIKNNGGAAAMEKLSSIKSQTIYEIIDNSQGFYVCPVEPQNRSKMNIPFRIGNAKGDDALEKRFLDKALELNMLSLKGHRSVGGIRASLYNAVTIEDVQKLAAFMKKFLEMHQL
As to B1, the Km is reported as 25.1 ± 5.3 μM μM.
